Laboratory results from patent publication US20250145690A1 (US Dept. of Health and Human Services, published 2025).
Positions count from the first letter of the chain named.

B1: COV44-74 (antibody, V domains shown)
VH: QVQLVQSGAEVKKPGASVKVSCKASGYTFSSYYMNWVRQAPGQGLEWVGLISPSAGYTAYAQMFQGRVTMTRDTSTSTVYMELSSLRSEDTAVYYCARVAVAGPNDYWGQGTLVTVSS
VL: EIVLTQSPGTLSLSPGERATLSCRASQSISSSYLAWYQQKPGQAPRLVILAASTRATGIPDRFSGSGSGTDFTLTISRLEPEDFALYYCQHYRSSPPLWTFGQGTKVEIR
B2: COV44-37 (antibody, V domains shown)
VH: QVQLVQSGAEVKKPGASVMLSCRASGYTFINDYMHWVRQAPGEGFEWMGIINPTGDGTKFAQKFQGRVTMTRDSSTTTVHMELRSLTSGDTAVYFCATGGRQSAFDIWGQGTVVIVSS
VL: DIVMTQSPLSLPVTPGESASISCRSSQSLLQNNGYNYLDWYLQKPGQSPQLLIYLGSYRASGVPDRFSGSGSGTDFTLKISRVEAEDVGVYYCVQAQQAPPLYTFGQGTKLQIK
B3: COV57-34 (antibody, V domains shown)
VH: QVQLVQSGTEVKKPGSSVKVSCRASGGTLSSYSVSWVRQAPGQGLEWMGRIIPILDKKTYAQKYQGRVTIIADTSTSTVYMELSSLKSDDSAVYYCTTFDYDTSGQRDQHDYWGQGTPVTVSS
VL: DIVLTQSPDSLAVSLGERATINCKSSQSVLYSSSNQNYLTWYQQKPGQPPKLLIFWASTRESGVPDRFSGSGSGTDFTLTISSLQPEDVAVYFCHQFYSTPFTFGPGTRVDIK
B4: COV57-13 (antibody, V domains shown)
VH: B3 VH with D89E, P118L
VL: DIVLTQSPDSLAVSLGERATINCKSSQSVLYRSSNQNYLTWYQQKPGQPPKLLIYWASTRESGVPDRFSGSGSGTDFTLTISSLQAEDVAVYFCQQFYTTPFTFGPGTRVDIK
B5: COV77-09 (antibody, V domains shown)
VH: EVQLVESGGGLVQPGRSLTLSCSGSGFTFGDYSMSWVRQAPGKGLEWLGFIRSQTYGGTTQYAASVQGRFTILRDDSKSIAYLQMNSLKTEDTAVYYCTRNYGVGDYWGQGTLVTVSS
VL: DIVMTQSPASLAVSLGERATIHCRSSLSVLNSSNNKNYLAWYQQKAGQPPKLLMYWASTRESGVPERFSGSGSGTDFTLTISSLEAGDVAVYYCQQYYDKLSLTFGGGTKVEIK
B6: COV57-38 (antibody, V domains shown)
VH: QVQLVESGGGVVQPGRSLRLSCEASGFNFNNYGMHWVRQAPGKGLEWVAVISYEGSKKYYEDSVRGRFTISRDFSKNTLYLQMNSLRAEDTAVYYCAKANEIFWLGQFKNDALDFWGQGTMVTVSS
VL: QSVLTQPPSASGTPGQRVAVSCSGSSSNIGTNFVNWYQHLPRTAPKLLIYRDNQRPSGVPDRFSGSKSGTSASLAISGLQSEDEADYYCAVWDDSLNGQVFGGGTKVTVL
B7: COV49-54 (antibody, V domains shown)
VH: EVQLVESGGGLVQPGGSLRLSCAASGFIVSSNYMSWVRQAPGKGLEWVSMIYSGGSTVYADSVKGRFTISRDISKNTLYLQMNSLRAEDTAVYYCALETFDYWGQGTLVTVSS
VL: DIQMTQSPSSLSASVGDRVTITCRASQGITNHLAWYQQKPGKVPKLLIYAASTLQSGVPSRFSGSGYGTDFTLTISSLQPEDVASYYCQKYDSAPRTFGQGTKVEIK

The binders below were run against T1, HCoV-HKU1 spike protein (Sino Biological 40606-V08B) (HCoV-HKU1, UniProt Q0ZME7 13-1295) (assay: bead flow cytometry, AUC minus CD4).
T1 sequence: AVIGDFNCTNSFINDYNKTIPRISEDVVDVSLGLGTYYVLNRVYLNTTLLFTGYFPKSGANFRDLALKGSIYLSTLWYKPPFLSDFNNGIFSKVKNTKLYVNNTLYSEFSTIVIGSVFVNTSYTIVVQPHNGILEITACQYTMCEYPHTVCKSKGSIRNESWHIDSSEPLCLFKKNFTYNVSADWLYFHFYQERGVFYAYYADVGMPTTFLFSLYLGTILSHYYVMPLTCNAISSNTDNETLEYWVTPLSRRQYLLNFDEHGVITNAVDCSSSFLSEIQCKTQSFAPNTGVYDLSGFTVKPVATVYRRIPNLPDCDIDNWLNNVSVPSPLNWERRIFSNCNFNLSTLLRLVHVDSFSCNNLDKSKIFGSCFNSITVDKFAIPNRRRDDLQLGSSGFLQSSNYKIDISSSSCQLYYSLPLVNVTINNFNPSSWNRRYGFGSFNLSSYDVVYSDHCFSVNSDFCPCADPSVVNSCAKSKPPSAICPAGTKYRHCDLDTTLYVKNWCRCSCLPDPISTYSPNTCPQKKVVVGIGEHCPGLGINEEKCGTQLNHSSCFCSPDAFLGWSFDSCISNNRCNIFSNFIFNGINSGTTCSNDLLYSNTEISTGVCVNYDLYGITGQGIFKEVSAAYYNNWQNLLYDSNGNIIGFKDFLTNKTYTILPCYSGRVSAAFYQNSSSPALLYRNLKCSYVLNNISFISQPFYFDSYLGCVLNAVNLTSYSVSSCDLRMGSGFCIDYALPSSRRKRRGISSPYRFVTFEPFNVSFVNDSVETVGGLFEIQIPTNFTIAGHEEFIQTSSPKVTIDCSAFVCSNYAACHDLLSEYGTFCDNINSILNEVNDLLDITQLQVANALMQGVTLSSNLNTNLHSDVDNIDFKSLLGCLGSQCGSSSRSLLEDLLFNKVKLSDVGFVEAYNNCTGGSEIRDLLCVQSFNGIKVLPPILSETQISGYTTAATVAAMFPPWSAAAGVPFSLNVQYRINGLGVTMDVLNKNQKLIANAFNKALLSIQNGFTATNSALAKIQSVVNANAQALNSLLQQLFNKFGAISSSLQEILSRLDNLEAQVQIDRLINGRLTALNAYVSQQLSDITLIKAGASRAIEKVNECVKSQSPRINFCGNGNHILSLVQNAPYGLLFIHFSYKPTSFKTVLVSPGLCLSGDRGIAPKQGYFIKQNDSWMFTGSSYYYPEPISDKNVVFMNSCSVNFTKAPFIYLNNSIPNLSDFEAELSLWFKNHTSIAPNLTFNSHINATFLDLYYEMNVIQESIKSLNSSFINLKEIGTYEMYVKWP

| Binder | binding result |
| --- | --- |
| B1 | no binding (tested: 200 µg/mL) |
| B2 | no binding (tested: 200 µg/mL) |

What follows are binders tested against T2, MERS-CoV spike protein (MERS-CoV, UniProt K9N5Q8 18-1291) (assay: bead flow cytometry, AUC minus CD4).
T2 sequence: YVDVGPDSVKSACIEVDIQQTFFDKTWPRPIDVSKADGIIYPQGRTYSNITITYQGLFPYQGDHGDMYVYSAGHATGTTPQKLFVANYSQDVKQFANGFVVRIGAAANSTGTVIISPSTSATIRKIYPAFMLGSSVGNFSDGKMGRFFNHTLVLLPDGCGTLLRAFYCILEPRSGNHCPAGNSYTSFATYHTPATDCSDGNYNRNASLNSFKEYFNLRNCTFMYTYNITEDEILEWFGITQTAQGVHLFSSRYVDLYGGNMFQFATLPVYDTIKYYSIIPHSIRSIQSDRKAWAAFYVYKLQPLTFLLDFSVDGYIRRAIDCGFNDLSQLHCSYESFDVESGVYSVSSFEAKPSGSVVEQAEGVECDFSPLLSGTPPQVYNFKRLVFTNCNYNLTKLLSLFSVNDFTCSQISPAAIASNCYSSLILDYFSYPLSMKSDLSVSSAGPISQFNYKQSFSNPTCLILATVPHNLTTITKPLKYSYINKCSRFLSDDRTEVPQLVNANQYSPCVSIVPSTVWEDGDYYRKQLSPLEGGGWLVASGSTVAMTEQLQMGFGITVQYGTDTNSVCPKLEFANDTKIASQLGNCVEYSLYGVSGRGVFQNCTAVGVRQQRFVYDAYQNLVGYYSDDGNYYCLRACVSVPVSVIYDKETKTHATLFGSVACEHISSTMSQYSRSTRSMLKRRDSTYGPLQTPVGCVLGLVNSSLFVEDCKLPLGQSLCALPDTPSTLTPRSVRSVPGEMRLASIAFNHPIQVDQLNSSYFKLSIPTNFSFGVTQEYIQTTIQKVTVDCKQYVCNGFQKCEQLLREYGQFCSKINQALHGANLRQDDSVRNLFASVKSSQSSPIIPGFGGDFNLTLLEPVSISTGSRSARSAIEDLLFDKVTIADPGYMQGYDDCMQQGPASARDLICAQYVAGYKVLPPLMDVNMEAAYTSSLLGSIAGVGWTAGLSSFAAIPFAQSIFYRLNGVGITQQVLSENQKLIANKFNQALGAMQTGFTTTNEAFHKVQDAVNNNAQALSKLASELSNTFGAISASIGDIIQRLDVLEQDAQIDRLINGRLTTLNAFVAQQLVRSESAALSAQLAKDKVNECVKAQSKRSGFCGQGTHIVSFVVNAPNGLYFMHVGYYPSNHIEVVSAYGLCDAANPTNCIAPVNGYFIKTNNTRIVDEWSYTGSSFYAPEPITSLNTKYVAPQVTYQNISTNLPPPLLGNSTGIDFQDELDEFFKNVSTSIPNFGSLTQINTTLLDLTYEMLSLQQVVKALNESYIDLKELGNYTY

| Binder | binding result |
| --- | --- |
| B3 | no binding (tested: 200 µg/mL) |
| B4 | no binding (tested: 200 µg/mL) |
| B5 | no binding (tested: 200 µg/mL) |
| B6 | no binding (tested: 200 µg/mL) |
| B7 | no binding (tested: 200 µg/mL) |
